Data set [1] deals with T1, NfxB T39R T51R (Pseudomonas aeruginosa PAO1) (UniProt P32265).
T1 sequence: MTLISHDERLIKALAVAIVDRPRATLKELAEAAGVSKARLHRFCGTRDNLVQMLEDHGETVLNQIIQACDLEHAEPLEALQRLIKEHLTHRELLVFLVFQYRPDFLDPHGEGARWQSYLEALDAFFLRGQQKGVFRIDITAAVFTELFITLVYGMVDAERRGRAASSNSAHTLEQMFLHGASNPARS
The data set can be described thus: EMSA. Conditions: EMSA: PBS (137 mM NaCl, 2.7 mM KCl, 8 mM Na2HPO4, 2 mM KH2PO4), 2 uL glycerin in 20 uL, 80 ng DNA, 5-70 pmol protein, 25 C, 30 min, SPR: PBS, 30 uL/min ….

For another data set, the system named is TNfxB3. Put plainly: SPR. Conditions: EMSA: PBS (137 mM NaCl, 2.7 mM KCl, 8 mM Na2HPO4, 2 mM KH2PO4), 2 uL glycerin in 20 uL, 80 ng DNA, 5-70 pmol protein, 25 C, 30 min, 30 uL/min …. For orientation: Mobility shift assays separate free from complexed probe on a gel.

pKd: −log10 of the molar value.

As for “CTCATCGGCAGCAGTTAAATCCATCGGTCACTCTTTATCTATCGCGGGCAGATGCGGGTATTTTGCCTAGAACACTCATTTTTCTCAAAGAGGATACTAGCTTTGTTCACACCAAAATCAAATGAGTCAATATTGACTTATTTGATTTTTGCGTGGATCATGCGCGGCTTCGACTACGTACTGGCTTCGTGCTTGGGTGAGATATGAACAAATTCCGCGAATGGATCAC (double strand) [tnfxB1-tmexC1 intergenic DNA (PtmexC1), EMSA]”, the binding result in data set [1] is “binds more weakly”. As to “ATACTAGCTTTGTTCACACCAAAATCAAATGAGTCAATATTGACTTATTTGATTTTTGCGTGGATCATGCGCGGCTTCGAC (double strand) [SPR operator DNA with two inverted repeats, 81 bp]”, in the data set on TNfxB3, the pKd was 6.04.

A word on the pKd: it is the Kd on a negative log10 scale, so that one unit is a factor of ten. Higher therefore signals a low Kd.

The values are drawn from article PMC11077950.
